In patent US20140348857A1, “METHODS OF DIAGNOSIS AND TREATMENT OF ENDOPLASMIC RETICULUM (ER) STRESS-RELATED CONDITIONS” (MASSACHUSETTS INSTITUTE OF TECHNOLOGY, priority 2011, published 2014):

What was measured:
PERK = assay: NAD+ incorporation assay with ER microsome-purified PERK and recombinant GST-PARP-16; assay type: biochemical, human; conditions: PERK purified from ER microsomes of unstressed PARP-16 knockdown cells
From the text: We examined NAD^+ incorporation onto GFP-PERK or GFP-IRE1α via EMAA in cells transfected with control or PARP-16 siRNA, treated with or without ER stress inducing drugs. Low level (ADP-ribosyl)ation of GFP-PERK and GFP-IRE1α was detected in control knock-down cells in the absence of drug (FIGS. 6C and 6D), likely due to the previously described UPR induction upon PERK or IRE1α expression (Bertolotti et al., Nat. Cell Biol. 2: 326-332, 2000; Kimata et al., Curr. Opin. Cell Biol. 23: 135-142, 2011).
(§1) For ER microsome-based assays including NAD^+ incorporation and immunoprecipitation, ER microsomes were fractionated from HeLa cells via isopycnic flotation method as described in Stephens et al., Methods Mol Biol. 419: 197-214, 2008, and incubated with 100 μM β-NAD^+ (MP Biomedicals) and 2.5 μCi of ^32P-NAD^+ (Perkin Elmer) in a PARP reaction buffer (50 mM HEPES pH 7.4, 150 mM NaCl, 1 mM MgCl2, 10 mM EGTA, 1 mM DTT, 0.1 mM Na3VO4, 50 mM NaF, 5 mM β-glycerophosphate, 1 μM ADP-HPD, and protease inhibitor cocktail) at 25° C. for 30 min. The ratio between unlabeled and labeled NAD^+ was kept constant upon titration of NAD^+ concentration. The ^32P-labeled ER microsomes were then lysed by addition of Triton X-100 at 1%. Proteins were immunoprecipitated, eluted in a 1× Laemmli sample buffer by boiling at 65° C. for 10 min, and then analyzed using autoradiogram and immunoblotting. […]

PARP-16 = target: T1, PARP-16 (Homo sapiens, UniProt Q8N5Y8); assay: 32P-NAD+ incorporation assay with recombinant GST-PARP-16 (self-modification); assay type: biochemical; conditions: of wild-type GST-PARP-16; purified from E. coli
T1 construct: Asterisk=full-length proteins; made in house; host or cells: E. coli BL21 RIPL
T1 sequence (Q8N5Y8 1-322): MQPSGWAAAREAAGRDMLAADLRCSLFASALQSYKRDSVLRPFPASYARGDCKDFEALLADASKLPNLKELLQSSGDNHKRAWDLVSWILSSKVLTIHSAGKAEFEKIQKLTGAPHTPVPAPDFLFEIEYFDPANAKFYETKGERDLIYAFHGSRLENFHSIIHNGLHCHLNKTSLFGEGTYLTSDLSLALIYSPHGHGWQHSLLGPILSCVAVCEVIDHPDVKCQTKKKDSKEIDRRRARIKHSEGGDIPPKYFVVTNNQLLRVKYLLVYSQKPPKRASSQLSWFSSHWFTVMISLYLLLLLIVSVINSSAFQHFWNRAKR
From the text: Human PARP-16 (ADP-ribosyl)ates itself and contains histidine and tyrosine residues at amino acid 152 and 182 within its catalytic domain, residues thought to be critical for enzymatic activity (FIG. 1B) (Kleine et al., Mol. Cell 32: 57-69, 2008). To determine if these residues are required for enzymatic activity, GST-PARP-16 and GST-PARP-16^H152Q Y182A were expressed and purified in E. coli, and ^32P-NAD^+ incorporation assays performed.
as §1

GFP-PERK = assay: PERK kinase assay after (ADP-ribosyl)ation of ER microsomes by GST-PARP-16; assay type: biochemical, human; conditions: versus GST-PARP-16 samples; depending on NAD concentration
Experimental: We examined PERK and IRE1α kinase activity in response to (ADP-ribosyl)ation by PARP-16 via self-phosphorylation assays. ER microsomes purified from GFP-PERK- or GFP-IRE1α-expressing cells were washed with 1M NaCl to remove bound PARP-16, returned to physiological salt buffer, split into duplicate reactions, and incubated with unlabeled NAD^+ plus either GST-PARP-16 or GST-PARP-16^H152Q Y182A, or ^32P-NAD^+ plus either recombinant protein. (ADP-ribosyl)ated GFP-PERK or GFP-IRE1α were extracted from the microsomes and purified under 1 M NaCl conditions to remove added recombinant PARP-16 proteins. Reactions containing unlabeled NAD^+ were incubated with ^32P-ATP, and reactions containing ^32P-NAD^+ were incubated with unlabeled ATP. […] Phosphorylation by GFP-IRE1α at the molecular weight of GST-PARP-16 and GST-PARP16^H152Q Y182A was also detected (FIG. 7E).
PERK and IRE1α kinase assays were performed as described herein. […] Proteins were immunoprecipitated, eluted in 1× Laemmli sample buffer by heating at 65° C. for 10 min, and then analyzed using autoradiogram and immunoblotting.

B1: GST-PARP-16^H152Q Y182A: recombinant GST-PARP-16 catalytically inactive mutant, His152 and Tyr182 mutated, purified in E. coli (protein, UniProt Q8N5Y8 1-322, looked up, variant H152Q Y182A)
Protein …: MQPSGWAAAREAAGRDMLAADLRCSLFASALQSYKRDSVLRPFPASYARGDCKDFEALLADASKLPNLKELLQSSGDNHKRAWDLVSWILSSKVLTIHSAGKAEFEKIQKLTGAPHTPVPAPDFLFEIEYFDPANAKFYETKGERDLIYAFQGSRLENFHSIIHNGLHCHLNKTSLFGEGTALTSDLSLALIYSPHGHGWQHSLLGPILSCVAVCEVIDHPDVKCQTKKKDSKEIDRRRARIKHSEGGDIPPKYFVVTNNQLLRVKYLLVYSQKPPKRASSQLSWFSSHWFTVMISLYLLLLLIVSVINSSAFQHFWNRAKR
modifications: GST fusion
ADP-ribosylation of PERK (PERK): not
32P-NAD+ incorporation activity relative to wild-type (PARP-16): ~6%
reduction of phosphorylation by PERK at the molecular weight of GST-PARP-16 (GFP-PERK): 5-10 fold
